Results on five molecules are retold here after patent publication US7662584, “Increased production of secreted proteins by recombinant eukaryotic cells” (Danisco US Inc.).

Holding throughout (details): tags: N-terminal MBP (malE), pMAL-p2X, E. coli; label: 32P-dCTP Klenow fill-in
Data set [1] deals with T1, HAC1-malE fusion (HAC1 DNA binding domain and leucine zipper fragment) (Trichoderma reesei, UniProt Q8TFF3 SEQ:84-203).
T1 chain: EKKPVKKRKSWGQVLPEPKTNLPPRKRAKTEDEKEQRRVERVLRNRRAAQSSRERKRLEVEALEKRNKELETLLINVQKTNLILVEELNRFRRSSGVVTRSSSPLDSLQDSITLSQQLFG
Description: EMSA; specific binding; 10 mM MgCl2, 50 mM KCl, pH 6.9, poly(dIdC), 25 C. The method, then: (§1) FIG. 16 depicts bandshift experiments, where the binding of the malE-HAC1 fusion protein to the putative UPR element sequences found in *T. reesei* pdi1 and bip1 promoters was tested. The oligonucleotides used in the binding reactions are shown on the top. Lanes 1, 12 and 16, no protein; lanes 2, 4-7, 8-11. 13-15 and 17-19. malE-HAC1 fusion protein; lane 3. malE protein alone. The binding was competed with unlabelled oligonucleotides on lanes 5 (20× excess); lanes 6, 10, 14 and 18 (50× excess) and lanes 7, 11, 15, and 19 (200× excess). Alignment of the UPR element sequences that bind the HAC1-malE protein is shown below wherein the sequence of pdiUPREII is set forth in SEQ ID No: 61, the sequence of bipUPREI is set forth in SEQ ID No. 62, and the sequence of bipUPREII is set forth in SEQ ID No. 63.
The oligonucleotides used in binding reactions were annealed in the concentration of […] in 50 mM Tris, pH 8.0, 10 mM MgCl_2, 1 mM spermidine and 5 mM DTT by heating them at 65° C. for 10 minutes and letting them cool down to room temperature during 2 hours. The oligonucleotides were labelled by incubating 100 ng of the annealed oligonucleotide in 10 mM Tris, pH 8.0, 5 mM MgCl_2 with 20 μCi of ^32P-dCTP and 2.5 U Klenow polymerase (Boehringer Mannheim) at 37° C. for 30 minutes. The binding reactions between the oligonucleotides having the putative UPR elements and the proteins were carried out with 0.5-2 μg of the HAC1-malE fusion protein or 2 μg of the malE protein and 1 ng of the annealed and labelled oligonucleotide in a mixture containing 20 mM HEPES, pH 6.9, 50 mM KCl, 10 mM MgCl_2, 0.25 mM EDTA, 0.5 mM DTT, 2% Ficoll, 5% glycerol and 100 μg/ml poly(dIdC) DNA. The competing oligonucleotides were used in 20-200 times excess of the labelled oligonucleotide. The binding eaction mixtures were incubated for 30 minutes at 25° C. and run in a 5% polyacrylamide gel with 10% glycerol in 12.5 mM Tris-borate, pH 8.3, 0.6 mM EDTA for three hours. The gel was dried on a filter paper and exposed onto an X-ray film.
In general terms: A gel shift assay detects complexes by their altered migration in electrophoresis.

For data set [2], the target named is T1, HAC1-malE fusion (HAC1 DNA binding …). Description: EMSA; competed by excess unlabelled oligo; 10 mM MgCl2, 50 mM KCl, pH 6.9, poly(dIdC), 25 C. The method, then: as §1
(§2) The oligonucleotides used in binding reactions were annealed in the concentration of […] in 50 mM Tris, pH 8.0, 10 mM MgCl_2, 1 mM spermidine and 5 mM DTT by heating them at 65° C. for 10 minutes and letting them cool down to room temperature during 2 hours. The oligonucleotides were labelled by incubating 100 ng of the annealed oligonucleotide in 10 mM Tris, pH 8.0, 5 mM MgCl_2 with 20 μCi of ^32P-dCTP and 2.5 U Klenow polymerase (Boehringer Mannheim) at 37° C. for 30 minutes. […]

For data set [3] the target is unchanged. Description: EMSA; no binding at all; 10 mM MgCl2, 50 mM KCl, pH 6.9, poly(dIdC), 25 C. The method, then:
as §1, §2

B1: bipUPREI (dsDNA)
DNA 1: GGATTAGAAAACGCCAACGTGTCCATAACGGTC
DNA 2: GACCGTTATGGACACGTTGGCGTTTTCTAATCC
With B1, the binding result in data set [1] is “binds”.

B2: pdiUPREI+II (dsDNA)
DNA 1: CGGCTGAACCAGCGCGGCAGCCAGATGTGGCCAAAGGG
DNA 2: CCCTTTGGCCACATCTGGCTGCCGCGCTGGTTCAGCCG
For the molecule B2, in data set [2], the binding result is “binds”.

B3: pdiUPREII (dsDNA)
DNA 1: GGATCTTGCATAGCCAGATGTGGCCTCGATTGACT
DNA 2: AGTCAATCGAGGCCACATCTGGCTATGCAAGATCC
In the case of B3, in data set [1], the binding result is “binds”.

B4: pdiUPREI (dsDNA)
DNA 1: GGTACCTGCTAACCAGCGCGGCATGATTCAAC
DNA 2: GTTGAATCATGCCGCGCTGGTTAGCAGGTACC
In the case of B4, in data set [3], the binding result was “no binding”.

B5: bipUPREII (dsDNA)
DNA 1: GGGCGTGGAGAAGCGAGAAGTGGCCTCTTCTTCTCC
DNA 2: GGAGAAGAAGAGGCCACTTCTCGCTTCTCCACGCCC
For B5, the binding result in data set [1] is on record as “binds”.
